According to patent US20250163162A1 (SYNTHEKINE, published 2025):

T1: IL10Rα/IL2Rγ receptor (human, UniProt Q13651 22-578; P31785 23-369)
T1 sequence (looked up) 1: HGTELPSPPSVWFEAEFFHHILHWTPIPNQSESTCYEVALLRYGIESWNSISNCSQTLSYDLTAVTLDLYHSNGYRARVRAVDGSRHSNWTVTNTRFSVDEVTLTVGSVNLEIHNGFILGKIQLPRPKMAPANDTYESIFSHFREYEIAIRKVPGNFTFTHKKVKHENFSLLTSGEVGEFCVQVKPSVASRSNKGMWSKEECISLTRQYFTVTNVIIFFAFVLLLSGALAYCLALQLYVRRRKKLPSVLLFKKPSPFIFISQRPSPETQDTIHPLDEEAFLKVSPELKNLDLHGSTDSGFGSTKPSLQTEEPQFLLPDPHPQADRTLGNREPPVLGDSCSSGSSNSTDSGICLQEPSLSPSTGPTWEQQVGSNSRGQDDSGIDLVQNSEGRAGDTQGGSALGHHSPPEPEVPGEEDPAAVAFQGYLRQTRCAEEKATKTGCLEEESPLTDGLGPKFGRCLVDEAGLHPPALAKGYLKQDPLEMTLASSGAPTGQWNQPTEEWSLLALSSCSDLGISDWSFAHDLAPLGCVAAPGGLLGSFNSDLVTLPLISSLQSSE
T1 sequence (looked up) 2: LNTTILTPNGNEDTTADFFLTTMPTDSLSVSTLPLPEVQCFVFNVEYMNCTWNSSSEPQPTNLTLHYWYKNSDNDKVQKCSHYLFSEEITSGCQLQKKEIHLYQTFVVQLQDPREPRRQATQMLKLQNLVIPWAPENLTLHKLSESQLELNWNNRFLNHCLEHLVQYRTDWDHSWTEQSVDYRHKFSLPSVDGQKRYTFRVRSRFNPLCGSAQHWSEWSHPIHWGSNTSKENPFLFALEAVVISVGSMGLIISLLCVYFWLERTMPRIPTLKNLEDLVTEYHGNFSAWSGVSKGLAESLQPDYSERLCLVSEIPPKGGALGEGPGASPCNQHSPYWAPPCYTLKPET

B1: DR465(DR240-DR231) (bispecific antibody)
chain: QVQLQESGGGSVQAGGSLRLSCGASGYTYSSYCMGWFRQVPGKEREGVAVIDSDGSTSYADSVKGRFTISKDNGKNTLYLQMNSLKPEDTAMYYCAADLGHYRPPCGVLYLGMDYWGKGTQVTVSSGGGSQVQLQESGGGSVQAGGSLRLSCTASGFTFDDREMNWYRQAPGNECELVSTISSDGSTYYADSVKGRFTISQDNAKNTVYLQMDSVKPEDTAVYYCAADFMIAIQAPGAGCWGQGTQVTVSSASHHHHHH
B2: DR395(DR229-DR239) (bispecific antibody)
chain: QVQLQESGGGLVQPGGSLRLSCTASGFSFSSYPMTWARQAPGKGLEWVSTIASDGGSTAYAASVEGRFTISRDNAKSTLYLQLNSLKTEDTAMYYCTKGYGDGTPAPGQGTQVTVSSGGGSQVQLQESGGGSVQAGGSLRLSCTVSGYTYSSNCMGWFRQAPGKEREGVATIYTGGGNTYYADSVKGRFTISQDNAKNTVYLQMNNLKPEDTAMYYCAAEPLSRVYGGSCPTPTFDYWGQGTQVTVSSASHHHHHH

Legend:
Assay in all cases: cell-based or functional assay
IL10Rα/IL2Rγ receptor [1] = biological target: T1, IL10Rα/IL2Rγ receptor
IL10Rα/IL2Rγ receptor [2] = biological target: T1, IL10Rα/IL2Rγ receptor; remark: listed apart in the source
IL10Rα/IL2Rγ receptor [3] = biological target: T1, IL10Rα/IL2Rγ receptor; remark: listed apart in the source
IL10Rα/IL2Rγ receptor [4] = biological target: T1, IL10Rα/IL2Rγ receptor; remark: listed apart in the source
IL10Rα/IL2Rγ receptor [5] = biological target: T1, IL10Rα/IL2Rγ receptor; remark: listed apart in the source
IL10Rα/IL2Rγ receptor [6] = biological target: T1, IL10Rα/IL2Rγ receptor; remark: listed apart in the source

Binder	pSTAT3 MFI, B cells, 100 nM (unstimulated 1045) (IL10Rα/IL2Rγ receptor [1])	pSTAT3 MFI, CD4+ T cells, 100 nM (unstimulated 1778) (IL10Rα/IL2Rγ receptor [1])	pSTAT3 MFI, CD8+ T cells, 100 nM (unstimulated 1288) (IL10Rα/IL2Rγ receptor [1])	pSTAT3 MFI, Monocytes, 100 nM (unstimulated 1787) (IL10Rα/IL2Rγ receptor [1])	pSTAT3 MFI, NK cells, 100 nM (unstimulated 1149) (IL10Rα/IL2Rγ receptor [1])	pSTAT3 MFI, CD8 T cells, 0.0001 nM (unstimulated 1446) (IL10Rα/IL2Rγ receptor [2])	pSTAT3 MFI, CD8 T cells, 0.001 nM (unstimulated 1446) (IL10Rα/IL2Rγ receptor [2])	pSTAT3 MFI, CD8 T cells, 0.01 nM (unstimulated 1446) (IL10Rα/IL2Rγ receptor [2])	pSTAT3 MFI, CD8 T cells, 0.1 nM (unstimulated 1446) (IL10Rα/IL2Rγ receptor [2])	pSTAT3 MFI, CD8 T cells, 1 nM (unstimulated 1446) (IL10Rα/IL2Rγ receptor [2])	pSTAT3 MFI, CD8 T cells, 10 nM (unstimulated 1446) (IL10Rα/IL2Rγ receptor [2])	pSTAT3 MFI, CD8 T cells, 100 nM (unstimulated 1446) (IL10Rα/IL2Rγ receptor [2])	pSTAT3 MFI, CD4 T cells, 0.0001 nM (unstimulated 1887) (IL10Rα/IL2Rγ receptor [3])	pSTAT3 MFI, CD4 T cells, 0.001 nM (unstimulated 1887) (IL10Rα/IL2Rγ receptor [3])	pSTAT3 MFI, CD4 T cells, 0.01 nM (unstimulated 1887) (IL10Rα/IL2Rγ receptor [3])	pSTAT3 MFI, CD4 T cells, 0.1 nM (unstimulated 1887) (IL10Rα/IL2Rγ receptor [3])	pSTAT3 MFI, CD4 T cells, 1 nM (unstimulated 1887) (IL10Rα/IL2Rγ receptor [3])	pSTAT3 MFI, CD4 T cells, 10 nM (unstimulated 1887) (IL10Rα/IL2Rγ receptor [3])	pSTAT3 MFI, CD4 T cells, 100 nM (unstimulated 1887) (IL10Rα/IL2Rγ receptor [3])	pSTAT3 MFI, B cells, 0.0001 nM (unstimulated 1193.5) (IL10Rα/IL2Rγ receptor [4])	further results
B1	1660 MFI	6350 MFI	4510 MFI	2350 MFI	1880 MFI	1390 MFI	1370 MFI	1380 MFI	1590 MFI	3260 MFI	4850 MFI	5020 MFI	1800 MFI	1800 MFI	1850 MFI	2210 MFI	4730 MFI	7240 MFI	7070 MFI	1110 MFI	pSTAT3 MFI, B cells, 0.001 nM (unstimulated 1193.5) (IL10Rα/IL2Rγ receptor [4]): 1100 MFI; pSTAT3 MFI, B cells, 0.01 nM (unstimulated 1193.5) (IL10Rα/IL2Rγ receptor [4]): 1090 MFI; pSTAT3 MFI, B cells, 0.1 nM (unstimulated 1193.5) (IL10Rα/IL2Rγ receptor [4]): 1110 MFI; pSTAT3 MFI, B cells, 1 nM (unstimulated 1193.5) (IL10Rα/IL2Rγ receptor [4]): 1290 MFI; pSTAT3 MFI, B cells, 10 nM (unstimulated 1193.5) (IL10Rα/IL2Rγ receptor [4]): 1840 MFI; pSTAT3 MFI, B cells, 100 nM (unstimulated 1193.5) (IL10Rα/IL2Rγ receptor [4]): 1850 MFI; pSTAT3 MFI, Monocytes, 0.0001 nM (unstimulated 2116) (IL10Rα/IL2Rγ receptor [5]): 1990 MFI; pSTAT3 MFI, Monocytes, 0.001 nM (unstimulated 2116) (IL10Rα/IL2Rγ receptor [5]): 1970 MFI; pSTAT3 MFI, Monocytes, 0.01 nM (unstimulated 2116) (IL10Rα/IL2Rγ receptor [5]): 1950 MFI; pSTAT3 MFI, Monocytes, 0.1 nM (unstimulated 2116) (IL10Rα/IL2Rγ receptor [5]): 1960 MFI; pSTAT3 MFI, Monocytes, 1 nM (unstimulated 2116) (IL10Rα/IL2Rγ receptor [5]): 2110 MFI; pSTAT3 MFI, Monocytes, 10 nM (unstimulated 2116) (IL10Rα/IL2Rγ receptor [5]): 2470 MFI; pSTAT3 MFI, Monocytes, 100 nM (unstimulated 2116) (IL10Rα/IL2Rγ receptor [5]): 2470 MFI; pSTAT3 MFI, NK cells, 0.0001 nM (unstimulated 1315) (IL10Rα/IL2Rγ receptor [6]): 1220 MFI; pSTAT3 MFI, NK cells, 0.001 nM (unstimulated 1315) (IL10Rα/IL2Rγ receptor [6]): 1230 MFI; pSTAT3 MFI, NK cells, 0.01 nM (unstimulated 1315) (IL10Rα/IL2Rγ receptor [6]): 1220 MFI; pSTAT3 MFI, NK cells, 0.1 nM (unstimulated 1315) (IL10Rα/IL2Rγ receptor [6]): 1250 MFI; pSTAT3 MFI, NK cells, 1 nM (unstimulated 1315) (IL10Rα/IL2Rγ receptor [6]): 1520 MFI; pSTAT3 MFI, NK cells, 10 nM (unstimulated 1315) (IL10Rα/IL2Rγ receptor [6]): 2040 MFI; pSTAT3 MFI, NK cells, 100 nM (unstimulated 1315) (IL10Rα/IL2Rγ receptor [6]): 2130 MFI
B2	1030 MFI	3570 MFI	2700 MFI	2020 MFI	1430 MFI	1380 MFI	1420 MFI	1400 MFI	1800 MFI	3320 MFI	3880 MFI	3450 MFI	1800 MFI	1870 MFI	1890 MFI	2450 MFI	4570 MFI	5180 MFI	4670 MFI	1130 MFI	pSTAT3 MFI, B cells, 0.001 nM (unstimulated 1193.5) (IL10Rα/IL2Rγ receptor [4]): 1130 MFI; pSTAT3 MFI, B cells, 0.01 nM (unstimulated 1193.5) (IL10Rα/IL2Rγ receptor [4]): 1140 MFI; pSTAT3 MFI, B cells, 0.1 nM (unstimulated 1193.5) (IL10Rα/IL2Rγ receptor [4]): 1150 MFI; pSTAT3 MFI, B cells, 1 nM (unstimulated 1193.5) (IL10Rα/IL2Rγ receptor [4]): 1260 MFI; pSTAT3 MFI, B cells, 10 nM (unstimulated 1193.5) (IL10Rα/IL2Rγ receptor [4]): 1340 MFI; pSTAT3 MFI, B cells, 100 nM (unstimulated 1193.5) (IL10Rα/IL2Rγ receptor [4]): 1360 MFI; pSTAT3 MFI, Monocytes, 0.0001 nM (unstimulated 2116) (IL10Rα/IL2Rγ receptor [5]): 2060 MFI; pSTAT3 MFI, Monocytes, 0.001 nM (unstimulated 2116) (IL10Rα/IL2Rγ receptor [5]): 2060 MFI; pSTAT3 MFI, Monocytes, 0.01 nM (unstimulated 2116) (IL10Rα/IL2Rγ receptor [5]): 2020 MFI; pSTAT3 MFI, Monocytes, 0.1 nM (unstimulated 2116) (IL10Rα/IL2Rγ receptor [5]): 2020 MFI; pSTAT3 MFI, Monocytes, 1 nM (unstimulated 2116) (IL10Rα/IL2Rγ receptor [5]): 2210 MFI; pSTAT3 MFI, Monocytes, 10 nM (unstimulated 2116) (IL10Rα/IL2Rγ receptor [5]): 2340 MFI; pSTAT3 MFI, Monocytes, 100 nM (unstimulated 2116) (IL10Rα/IL2Rγ receptor [5]): 2440 MFI; pSTAT3 MFI, NK cells, 0.0001 nM (unstimulated 1315) (IL10Rα/IL2Rγ receptor [6]): 1260 MFI; pSTAT3 MFI, NK cells, 0.001 nM (unstimulated 1315) (IL10Rα/IL2Rγ receptor [6]): 1270 MFI; pSTAT3 MFI, NK cells, 0.01 nM (unstimulated 1315) (IL10Rα/IL2Rγ receptor [6]): 1260 MFI; pSTAT3 MFI, NK cells, 0.1 nM (unstimulated 1315) (IL10Rα/IL2Rγ receptor [6]): 1310 MFI; pSTAT3 MFI, NK cells, 1 nM (unstimulated 1315) (IL10Rα/IL2Rγ receptor [6]): 1640 MFI; pSTAT3 MFI, NK cells, 10 nM (unstimulated 1315) (IL10Rα/IL2Rγ receptor [6]): 1800 MFI; pSTAT3 MFI, NK cells, 100 nM (unstimulated 1315) (IL10Rα/IL2Rγ receptor [6]): 1760 MFI
